Source: article PMC12407318

Test: sheep red blood cell hemolysis, OD542
Conditions: glycan lost; control: WT Anxa2

B1: Annexin A2 (Anxa2): S22A (protein)
parent chain: MSTVHEILCKLSLEGDHSTPPSAYGSVKPYTNFDAERDALNIETAVKTKGVDEVTIVNILTNRSNVQRQDIAFAYQRRTKKELPSALKSALSGHLETVILGLLKTPAQYDASELKASMKGLGTDEDSLIEIICSRTNQELQEINRVYKEMYKTDLEKDIISDTSGDFRKLMVALAKGRRAEDGSVIDYELIDQDARELYDAGVKRKGTDVPKWISIMTERSVCHLQKVFERYKSYSPYDMLESIKKEVKGDLENAFLNLVQCIQNKPLYFADRLYDSMKGKGTRDKVLIRIMVSRSEVDMLKIRSEFKRKYGKSLYYYIQQDTKGDYQKALLYLCGGDD
For B1, the “other: MBL-MASP complement activation” value was “decreases”.

B2: Annexin A2 (Anxa2): S26A (protein)
parent chain: B1 parent chain
With B2 the “other: MBL-MASP complement activation” value was “decreases”.
